Assay results reported in patent publication EP4696707A1.

Biological target: ATP5B protein (UniProt P06576)
Assay: SPR, ATP5B amine-coupled to CM5 chip, peptide in flow at 50 µl/min; binding relative to SEQ ID NO: 12

ATP5B protein, sequence (P06576 48-529 limits assumed): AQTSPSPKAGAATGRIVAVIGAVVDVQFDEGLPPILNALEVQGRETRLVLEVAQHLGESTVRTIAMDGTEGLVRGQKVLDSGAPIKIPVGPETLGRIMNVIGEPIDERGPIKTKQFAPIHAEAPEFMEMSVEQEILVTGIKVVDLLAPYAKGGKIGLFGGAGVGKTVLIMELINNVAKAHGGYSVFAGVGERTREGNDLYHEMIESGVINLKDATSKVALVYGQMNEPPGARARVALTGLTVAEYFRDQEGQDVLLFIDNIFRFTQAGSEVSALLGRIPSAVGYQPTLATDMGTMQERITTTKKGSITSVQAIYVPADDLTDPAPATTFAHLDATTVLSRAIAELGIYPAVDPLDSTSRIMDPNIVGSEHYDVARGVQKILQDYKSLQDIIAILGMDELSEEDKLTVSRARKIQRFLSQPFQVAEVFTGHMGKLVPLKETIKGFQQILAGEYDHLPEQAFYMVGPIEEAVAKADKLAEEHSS

B1: Shortened substance (8-35) amino acid Ala substituted (32) (peptide)
peptide: VDRGAGSIREAGGAFGKREQAEEEAYFR
For B1, which Binding (%) is on record?
Its Binding (%) is 426%.

B2: Shortened substance (8-35) amino acid Ala substituted (15) (peptide)
peptide: VDRGAGSAREAGGAFGKREQAEEERYFR
How did the Binding (%) turn out when B2 was run?
Its Binding (%) is 99.3%.

B3: Shortened substance (8-35) amino acid Ala substituted (20) (peptide)
peptide: VDRGAGSIREAGAAFGKREQAEEERYFR
With B3 as the binder, how does the Binding (%) read?
The Binding (%) was 68%.

B4: Shortened substance (8-35) amino acid Ala substituted (10) (peptide)
peptide: VDAGAGSIREAGGAFGKREQAEEERYFR
B4 was tested. Which Binding (%) did it give?
The Binding (%) was 104%.

B5: Shortened substance (8-35) amino acid Ala substituted (25) (peptide)
peptide: VDRGAGSIREAGGAFGKAEQAEEERYFR
With B5 as the binder, how does the Binding (%) read?
Its Binding (%) is 85.2%.

B6: Shortened substance (8-35) amino acid Ala substituted (13) (peptide)
peptide: VDRGAASIREAGGAFGKREQAEEERYFR
How did the Binding (%) turn out when B6 was run?
Its Binding (%) is 98.5%.

B7: Shortened substance (8-35) amino acid Ala substituted (9) (peptide)
peptide: VARGAGSIREAGGAFGKREQAEEERYFR
Which Binding (%) does the source give for B7 here?
The Binding (%) was 91.6%.

B8: Shortened substance (8-35) amino acid Ala substituted (19) (peptide)
peptide: VDRGAGSIREAAGAFGKREQAEEERYFR
How did the Binding (%) turn out when B8 was run?
The Binding (%) was 89.6%.

B9: Shortened substance (8-35) amino acid Ala substituted (30) (peptide)
peptide: VDRGAGSIREAGGAFGKREQAEAERYFR
Which Binding (%) does the source give for B9 here?
Its Binding (%) is 94%.

B10: Shortened substance (8-35) amino acid Ala substituted (14) (peptide)
peptide: VDRGAGAIREAGGAFGKREQAEEERYFR
For B10, which Binding (%) is on record?
The Binding (%) was 98.8%.

B11: Shortened substance (8-35) amino acid Ala substituted (17) (peptide)
peptide: VDRGAGSIRAAGGAFGKREQAEEERYFR
B11 was tested. Which Binding (%) did it give?
Its Binding (%) is 169%.

B12: Shortened substance (8-35) amino acid Ala substituted (27) (peptide)
peptide: VDRGAGSIREAGGAFGKREAAEEERYFR
B12 was tested. Which Binding (%) did it give?
The Binding (%) was 89.5%.

B13: Shortened substance (8-35) amino acid Ala substituted (31) (peptide)
peptide: VDRGAGSIREAGGAFGKREQAEEARYFR
For B13, which Binding (%) is on record?
The Binding (%) was 158%.

B14: Shortened substance (8-35) amino acid Ala substituted (33) (peptide)
peptide: VDRGAGSIREAGGAFGKREQAEEERAFR
For B14, which Binding (%) is on record?
The Binding (%) was 146%.

B15: Shortened substance (8-35) amino acid Ala substituted (23) (peptide)
peptide: VDRGAGSIREAGGAFAKREQAEEERYFR
B15 was tested. Which Binding (%) did it give?
The Binding (%) was 102%.

B16: Shortened substance (8-35) amino acid Ala substituted (24) (peptide)
peptide: VDRGAGSIREAGGAFGAREQAEEERYFR
For B16, which Binding (%) is on record?
The Binding (%) was 100%.

B17: Shortened substance (8-35) amino acid Ala substituted (8) (peptide)
peptide: ADRGAGSIREAGGAFGKREQAEEERYFR
How did the Binding (%) turn out when B17 was run?
The Binding (%) was 101%.

B18: Shortened substance (8-35) amino acid Ala substituted (34) (peptide)
peptide: VDRGAGSIREAGGAFGKREQAEEERYAR
How did the Binding (%) turn out when B18 was run?
Its Binding (%) is 92.1%.

B19: Shortened substance (8-35) amino acid Ala substituted (11) (peptide)
peptide: VDRAAGSIREAGGAFGKREQAEEERYFR
How did the Binding (%) turn out when B19 was run?
Its Binding (%) is 100%.

B20: Shortened substance (8-35) (peptide)
peptide: VDRGAGSIREAGGAFGKREQAEEERYFR
For B20, which Binding (%) is on record?
Its Binding (%) is 100%.

B21: Shortened substance (8-35) amino acid Ala substituted (16) (peptide)
peptide: VDRGAGSIAEAGGAFGKREQAEEERYFR
For B21, which Binding (%) is on record?
The Binding (%) was 97%.

B22: Shortened substance (8-35) amino acid Ala substituted (22) (peptide)
peptide: VDRGAGSIREAGGAAGKREQAEEERYFR
Which Binding (%) does the source give for B22 here?
The Binding (%) was 94%.

B23: Shortened substance (8-35) amino acid Ala substituted (35) (peptide)
peptide: VDRGAGSIREAGGAFGKREQAEEERYFA
With B23 as the binder, how does the Binding (%) read?
Its Binding (%) is 110%.

B24: Shortened substance (8-35) amino acid Ala substituted (26) (peptide)
peptide: VDRGAGSIREAGGAFGKRAQAEEERYFR
With B24 as the binder, how does the Binding (%) read?
The Binding (%) was 94.1%.

B25: Shortened substance (8-35) amino acid Ala substituted (29) (peptide)
peptide: VDRGAGSIREAGGAFGKREQAAEERYFR
For B25, which Binding (%) is on record?
Its Binding (%) is 96.7%.
